The supplement of paper PMC10126150
± gives the standard deviation of the averaged measurements.

Tested on: ATP
Test: switch fluorescence ratio, 500 uM ATP over buffer (Cy3 cluster intensity, sum of 5 cycles each) (fold (ratio)); higher = stronger signal-on switching upon ATP binding; sequences stand for … in TCGTCGGCAGCGTCAGATGTGTATAAGAGACAGTTTTTTTTTTTTTTTTTTTTTTTTT…TC
Conditions: aptamer strand: ATP DNA aptamer (quencher-CACCTGGGGGAGTATTGCGGAGGAAGG + anchor), 100 nM annealed; ATP concentration: 500 uM
Method in brief: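 Cy3-labelled switching-strand clusters on a modified Illumina MiSeq flow-cell were annealed to 100 nM quencher-labelled ATP aptamer and imaged first in selection buffer, then after 15 min with 500 uM ATP at 22 °C. NaOH stripping and re-annealing separated each of five buffer/ATP cycles, and clusters outside 100-1000 RFU were excluded. The fluorescence ratio sums target-cycle Cy3 intensity over buffer-cycle Cy3 intensity per cluster and averages it per switch-domain sequence.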
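Also: ATP exposure 15 min at 22 °C before imaging.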

Sequence | switch fluorescence ratio
TGATGGTTCA | 0.941 ± 0.077
TGATGTAATG | 1 ± 0.02
TGATGTAGAG | 0.99 ± 0.029
TGATGTATCA | 1.01 ± 0.08
TGATGTGATG | 0.995 ± 0.012
TGATGTTGGT | 0.988 ± 0.014
TGATTATAGA | 0.983 ± 0.03
TGATTATGGG | 0.9781 ± 0.0063
TGATTATGTT | 1.04 ± 0.035
TGATTCCGCA | 3.07 ± 0.12
TGATTCGGTT | 1.037 ± 0.0089
TGATTCTAGC | 0.972 ± 0.011
TGATTCTTAT | 0.97 ± 0.014
TGATTGGATG | 0.9855 ± 0.007
TGATTTAACC | 1.05 ± 0.021
TGATTTCCAT | 0.9996 ± 0.0064
TGATTTGACC | 1.03 ± 0.051
TGATTTGGGG | 0.9675 ± 0.0076
TGATTTTGGA | 0.974 ± 0.012
TGATTTTGGC | 1.01 ± 0.017
TGCAAAAGAG | 1.01 ± 0.062
TGCAAGGCGC | 1.23 ± 0.24
TGCAAGTTCG | 0.9694 ± 0.0095
TGCAATTGGG | 1.08 ± 0.022
TGCAATTTGT | 1 ± 0.078

Sequence | switch fluorescence ratio
TGCACAGTCG | 1.01 ± 0.036
TGCACCGAGT | 1.04 ± 0.018
TGCAGAAATT | 0.98 ± 0.059
TGCAGAGCAC | 1.01 ± 0.028
TGCAGAGGGC | 1.03 ± 0.02
TGCAGGCAAG | 1.01 ± 0.024
TGCAGGGATC | 1.03 ± 0.017
TGCAGGGGCG | 1.04 ± 0.14
TGCAGGTAGG | 1.04 ± 0.036
TGCAGGTTGG | 1.03 ± 0.036
TGCAGTCTGT | 0.988 ± 0.034
TGCAGTGGTT | 1.01 ± 0.03
TGCAGTTTGA | 1.02 ± 0.012
TGCATAAGAA | 0.955 ± 0.03
TGCATAATCT | 1.04 ± 0.026
TGCATAGGGG | 0.999 ± 0.018
TGCATGCAGG | 1.02 ± 0.015
TGCATGGGCT | 1.05 ± 0.12
TGCATGGGGG | 0.999 ± 0.044
TGCATGTCCT | 1.029 ± 0.0088
TGCATGTGGC | 0.988 ± 0.012
TGCATTAGAG | 1.02 ± 0.034
TGCATTTAGT | 1.006 ± 0.0086
TGCATTTTAC | 1.28 ± 0.082
TGCCAGATTT | 0.993 ± 0.041

Sequence | switch fluorescence ratio
TGCCCGGGGG | 1.24 ± 0.26
TGCCCGTACG | 1 ± 0.033
TGCCGACGTA | 1.03 ± 0.017
TGCCGGCGCT | 0.989 ± 0.038
TGCCGGGGAC | 1.04 ± 0.034
TGCCGGGGGA | 1.01 ± 0.018
TGCCGGGGGG | 0.99 ± 0.011
TGCCGTTTTC | 1.04 ± 0.011
TGCCTAAAGT | 0.976 ± 0.016
TGCCTAAATA | 1 ± 0.031
TGCCTGCGGA | 1.001 ± 0.005
TGCCTTGAGA | 1 ± 0.015
TGCGAAGGAG | 0.9794 ± 0.0063
TGCGAATGAG | 0.993 ± 0.0049
TGCGACAGTT | 1.006 ± 0.0029
TGCGACGATG | 1.03 ± 0.027
TGCGACTGG | 0.9979 ± 0.0067
TGCGATGTAG | 0.9889 ± 0.005
TGCGATTAAG | 1 ± 0.047
TGCGATTCG | 0.9931 ± 0.0076
TGCGATTGGT | 1.01 ± 0.012
TGCGCAACTT | 1.0306 ± 0.001
TGCGCATAGA | 1.02 ± 0.018
TGCGGAGAAT | 1.028 ± 0.0026
TGCGGCAATT | 1.09 ± 0.012

Sequence | switch fluorescence ratio
TGCGGCGCTT | 1.97 ± 1.3
TGCGGGAGTG | 0.965 ± 0.023
TGCGGGGAAT | 0.9707 ± 0.0068
TGCGGGGGCT | 1.002 ± 0.0025
TGCGGGGGGC | 0.991 ± 0.012
TGCGGGGTTA | 0.986 ± 0.024
TGCGGGTAGG | 1.03 ± 0.012
TGCGGTGGGG | 0.976 ± 0.013
TGCGGTTAGC | 1.004 ± 0.006
TGCGTAAGGC | 1.18 ± 0.025
TGCGTAGTGC | 1.09 ± 0.036
TGCGTATATG | 1.005 ± 0.0085
TGCGTGGCGG | 1.02 ± 0.037
TGCGTGTGGG | 1.0208 ± 0.001
TGCGTGTTTT | 1.03 ± 0.015
TGCGTTAT | 1.07 ± 0.036
TGCGTTCGTC | 0.993 ± 0.015
TGCTAATCTG | 0.958 ± 0.025
TGCTACGGCG | 1.02 ± 0.019
TGCTAGCCTC | 0.9724 ± 0.004
TGCTAGGGGG | 0.989 ± 0.02
TGCTAGGGGT | 1.41 ± 0.051
TGCTATACTT | 1.46 ± 0.15
TGCTATTATG | 0.988 ± 0.048
TGCTCATTCG | 1.01 ± 0.024
